# In patent US6028055A, “Receptor selective BNP” (Genetech, Inc., priority 1997, dated 2000):
# Where no end group is shown, it is not given here.
# Biological target: NPR-A IgG fusion (A-IgG) (Homo sapiens, UniProt P16066)
# Test: Phage ELISA measurement of phagemid affinities for NPR-A (A-IgG)
# Conditions: ratio of mutant BNP phagemid binding affinity (EC50) to ANP phagemid binding to A-IgG; clones after 7 rounds of selection
# Procedure: ELISA measurement of phagemic affinities for NPR-A and NPR-C: Phage ELISA were determined according to the method of Cunningham, B. C. et al., (1994) EMBO J., 13:2508-2515. Microtiter plates (Nunc, Maxisorb, 96 wells) were coated with purified A-IgG (at 1 μg/ml) in 50 mM sodium bicarbonate (pH 9.6) at 4 C overnight. The plates were blocked with 5% skimmed milk and washed with PBS, 0.01% TWEEN 20. Serial dilutions of competing receptor (A-IgG or C-IgG) and a subsaturating concentration of BNP-phagemid were added to wells in 100 μl of binding buffer (2% skim milk in PBS). After 2 h the plates were washed, and the bound phagemid stained with sheep anti-M13 HRP conjugate antibody (Pharmacia #279402-01),and assayed.
# The amino acid residues found at each randomized position after 7 rounds of selection are shown in Table I. 8 segments of 3 to 5 amino acids randomized by primer mutagenisis are indicated at the top of the figure, immediately above the numbering for 32 amino acid human BNP, the sequence of which is shown in single letter amino acid code. Cysteine residues 10 and 26 were not mutagenized since they form a disulfide bond essential for binding to NPR-A. The substitution of K3 for D (Display BNP) is analogous to the acidic substitution R3D in ANP used to facilitate secretion expression in E. coli (Cunningham et al. (1994)). Individual clones were picked and the DNA sequence was determined. The number of times a particular sequence was observed is shown on the left. The ratio of mutant BNP phagemid binding affinity to ANP phagemid binding to A-IgG is shown on the right. Mutations that occur outside of the mutagenesis window result from polymerase misincorporation mutations that render a selection advantage to the mutant BNP phagemid (Cunningham et al. (1994)).
# NPR-A IgG fusion (A-IgG), sequence (P16066 with tags, fused parts or gaps limits assumed): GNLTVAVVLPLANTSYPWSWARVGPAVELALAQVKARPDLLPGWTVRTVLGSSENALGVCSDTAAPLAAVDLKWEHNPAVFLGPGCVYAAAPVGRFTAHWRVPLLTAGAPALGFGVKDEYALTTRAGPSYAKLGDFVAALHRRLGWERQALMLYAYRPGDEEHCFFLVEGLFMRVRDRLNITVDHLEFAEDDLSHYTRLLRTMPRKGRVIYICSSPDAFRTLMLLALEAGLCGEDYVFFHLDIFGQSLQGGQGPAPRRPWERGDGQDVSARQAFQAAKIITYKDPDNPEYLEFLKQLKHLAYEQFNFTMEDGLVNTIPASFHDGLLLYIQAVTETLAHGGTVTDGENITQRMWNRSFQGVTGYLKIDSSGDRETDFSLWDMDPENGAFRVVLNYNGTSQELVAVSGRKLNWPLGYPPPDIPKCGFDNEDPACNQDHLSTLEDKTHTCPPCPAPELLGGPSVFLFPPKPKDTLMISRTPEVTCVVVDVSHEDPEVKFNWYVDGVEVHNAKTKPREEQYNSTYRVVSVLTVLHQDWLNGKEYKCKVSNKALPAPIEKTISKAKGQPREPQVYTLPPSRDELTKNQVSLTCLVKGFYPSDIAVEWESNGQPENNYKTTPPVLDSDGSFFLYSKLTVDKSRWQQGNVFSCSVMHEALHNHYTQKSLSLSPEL
row,Substance,Binding to NPR-A ratio of mutant/hANP
1,"F W R: BNP-phagemid clone of Table I (Display BNP, K3D); substitutions as in hBNP Gly23Phe, Leu24Trp, Gly25Arg (SEQ ID NO:2) (SPKMVQGSGCFGRKMERISSSSFWRCKVLRRH; ends and bridges not checked; cysteine pairing not given here)",0.8
2,"G R R: BNP-phagemid clone of Table I (Display BNP, K3D); substitutions seem those of hBNP Arg13Gly, Lys14Arg, Ser19Arg",1.6
3,"hBNP Gly23Leu, Leu24Trp, Gly25Arg (SPKMVQGSGCFGRKMERISSSSLWRCKVLRRH; ends and bridges not checked; cysteine pairing not given here) [L W R, measured as BNP-phagemid clone (Display BNP, K3D)]",2.0
4,"hBNP Gly23Met, Leu24Phe, Gly25Arg (SPKMVQGSGCFGRKMERISSSSMFRCKVLRRH; ends and bridges not checked; cysteine pairing not given here) [M F R, measured as BNP-phagemid clone (Display BNP, K3D)]",3.0
5,"hBNP Gly23Met, Leu24Trp, Gly25Arg [M W R]",1.0
6,"hBNP Gly23Met, Leu24Tyr, Gly25Arg (SPKMVQGSGCFGRKMERISSSSMYRCKVLRRH; ends and bridges not checked; cysteine pairing not given here) [M Y R, measured as BNP-phagemid clone (Display BNP, K3D)]",2.4
7,"hBNP Lys14Asn, Ser19Ala, Ser20Arg, Ser21Glu (SPKMVQGSGCFGRNMERIARESGLGCKVLRRH; ends and bridges not checked; cysteine pairing not given here) [N A R E, measured as BNP-phagemid clone (Display BNP, K3D)]",1.3
8,"hBNP Lys14Asn, Ser19Arg (SPKMVQGSGCFGRNMERIRSSSGLGCKVLRRH; ends and bridges not checked; cysteine pairing not given here) [N R, measured as BNP-phagemid clone (Display BNP, K3D)]",3.5
9,"hBNP Lys14Asn, Ser19Arg, Ser20Asn, Ser21Thr (SPKMVQGSGCFGRNMERIRNTSGLGCKVLRRH; ends and bridges not checked; cysteine pairing not given here) [N R N T, measured as BNP-phagemid clone (Display BNP, K3D)]",8.7
10,"hBNP Lys14Asn, Ser19Arg, Ser20Gly (SPKMVQGSGCFGRNMERIRGSSGLGCKVLRRH; ends and bridges not checked; cysteine pairing not given here) [N R G, measured as BNP-phagemid clone (Display BNP, K3D)]",3.9
11,"hBNP Lys14Asn, Ser19Arg, Ser20Gly, Ser21Met (SPKMVQGSGCFGRNMERIRGMSGLGCKVLRRH; ends and bridges not checked; cysteine pairing not given here) [N R G M, measured as BNP-phagemid clone (Display BNP, K3D)]",2.9
12,"hBNP Lys14Asn, Ser19Arg, Ser20His, Ser21Leu (SPKMVQGSGCFGRNMERIRHLSGLGCKVLRRH; ends and bridges not checked; cysteine pairing not given here) [N R H L, measured as BNP-phagemid clone (Display BNP, K3D)]",1.0
13,"hBNP Lys14Asn, Ser19Arg, Ser20Lys, Ser21Thr (SPKMVQGSGCFGRNMERIRKTSGLGCKVLRRH; ends and bridges not checked; cysteine pairing not given here) [N N K T, measured as BNP-phagemid clone (Display BNP, K3D)]",4.2
14,"hBNP Lys14Asn, Ser19Arg, Ser20Thr, Ser21Lys (SPKMVQGSGCFGRNMERIRTKSGLGCKVLRRH; ends and bridges not checked; cysteine pairing not given here) [N R T K, measured as BNP-phagemid clone (Display BNP, K3D)]",4.4
15,"hBNP Lys14Asn, Ser19Arg, Ser21Trp [N R S W]",4.4
16,"hBNP Lys14Asn, Ser19Gly, Ser20Arg, Ser21Ala (SPKMVQGSGCFGRNMERIGRASGLGCKVLRRH; ends and bridges not checked; cysteine pairing not given here) [N G R A, measured as BNP-phagemid clone (Display BNP, K3D)]",4.8
17,"hBNP Lys14Asn, Ser19Gly, Ser20Gly, Ser21Leu (SPKMVQGSGCFGRNMERIGGLSGLGCKVLRRH; ends and bridges not checked; cysteine pairing not given here) [N G G L, measured as BNP-phagemid clone (Display BNP, K3D)]",3.9
18,"hBNP Lys14Asn, Ser19Gly, Ser20His, Ser21Leu (SPKMVQGSGCFGRNMERIGHLSGLGCKVLRRH; displayed on phagemid) [N G H L, measured as BNP-phagemid clone (Display BNP, K3D)]",14.8
19,"hBNP Lys14Gln, Ser19Arg, Ser20His, Ser22Thr (SPKMVQGSGCFGRQMERIRHSTGLGCKVLRRH; displayed on phagemid) [Q R H S T, measured as BNP-phagemid clone (Display BNP, K3D)]",4.0
20,"hBNP Lys14Thr, Ser19Arg, Ser20His, Ser21Gly, Ser22Gly (SPKMVQGSGCFGRTMERIRHGGGLGCKVLRRH; displayed on phagemid) [T R H G H, measured as BNP-phagemid clone (Display BNP, K3D)]",5.0
